How the values were obtained:
[1] = biological target: human OX40L expressed on cells (K562-hOX40L cells; HUVEC) (human) (UniProt P23510); assay: cell-based or functional assay
[2] = biological target: human OX40L expressed on cells (K562-hOX40L cells; HUVEC) (human) (UniProt P23510); assay: flow cytometry on K562-hOX40L cells, FITC rabbit anti-mouse IgG
[3] = biological target: human OX40L expressed on cells (K562-hOX40L cells; HUVEC) (human) (UniProt P23510); assay: FACS on HUVEC; <KLH> 24 h, then staining with TAG-34, secondary anti-murine IgG-Alexa488
[4] = biological target: human OX40L expressed on cells (K562-hOX40L cells; HUVEC) (human) (UniProt P23510); assay: FACS on HUVEC; <KLH> 2.5 h, then staining with TAG-34, secondary anti-murine IgG-Alexa488
[5] = biological target: human OX40L expressed on cells (K562-hOX40L cells; HUVEC) (human) (UniProt P23510); assay: FACS on HUVEC; media control 24 h, then staining with TAG-34, secondary anti-murine IgG-Alexa488
[6] = biological target: Recombinant soluble human OX40L fused to a Histidine tag (human) (UniProt P23510); assay: SPR, Biacore 3000; antibody captured via anti-Fcγ on CM5, hOX40L-His as analyte, 1:1 Langmuir fit
Recombinant soluble human OX40L fused to a Histidine tag (human), sequence (P23510 51-183): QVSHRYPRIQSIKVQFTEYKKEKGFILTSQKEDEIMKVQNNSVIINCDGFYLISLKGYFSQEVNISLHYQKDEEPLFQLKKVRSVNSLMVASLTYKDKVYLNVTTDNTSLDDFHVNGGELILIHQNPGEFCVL

[7] = biological target: human OX40L expressed on cells (K562-hOX40L cells; HUVEC) (human) (UniProt P23510); assay: FACS on HUVEC; media control 2.5 h, then staining with TAG-34, secondary anti-murine IgG-Alexa488
[8] = biological target: Recombinant soluble human OX40L fused to a Histidine tag (human) (UniProt P23510); assay: SPR competition; hOX40L-His (10 nM) preincubated with antibody (0.78-100 nM), injected over immobilized OX40-hFc
[9] = biological target: human OX40L expressed on cells (K562-hOX40L cells; HUVEC) (human) (UniProt P23510); assay: FACS on HUVEC; TAG-34 10 µg/ml 24 h, no restaining, secondary anti-murine IgG-Alexa488 (down-modulation of hOX40L)
[10] = biological target: human OX40L expressed on cells (K562-hOX40L cells; HUVEC) (human) (UniProt P23510); assay: FACS on HUVEC; TAG-34 10 µg/ml 2.5 h, no restaining, secondary anti-murine IgG-Alexa488 (down-modulation of hOX40L)
[11] = biological target: human OX40L expressed on cells (K562-hOX40L cells; HUVEC) (human) (UniProt P23510); assay: FACS on HUVEC; TAG34 10 µg/ml 24 h, restaining with TAG-34, secondary anti-murine IgG-Alexa488 (down-modulation of hOX40L)
[12] = biological target: human OX40L expressed on cells (K562-hOX40L cells; HUVEC) (human) (UniProt P23510); assay: FACS on HUVEC; TAG34 10 µg/ml 2.5 h, restaining with TAG-34, secondary anti-murine IgG-Alexa488 (down-modulation of hOX40L)
[13] = biological target: human OX40L expressed on cells (K562-hOX40L cells; HUVEC) (human) (UniProt P23510); assay: blocking FACS on K562_OX40L cells: antibody as competitor, blocked ligand Dig-labelled hOX40:hFc, read with anti-digoxigenin-fluorescein
[14] = biological target: activated C3c (generated via activation of C3, from human pooled serum) (human) (UniProt P01024); assay: cell-based or functional assay
activated C3c (generated via activation of C3, from human pooled serum) (human), sequence (P01024 23-1663 limits assumed): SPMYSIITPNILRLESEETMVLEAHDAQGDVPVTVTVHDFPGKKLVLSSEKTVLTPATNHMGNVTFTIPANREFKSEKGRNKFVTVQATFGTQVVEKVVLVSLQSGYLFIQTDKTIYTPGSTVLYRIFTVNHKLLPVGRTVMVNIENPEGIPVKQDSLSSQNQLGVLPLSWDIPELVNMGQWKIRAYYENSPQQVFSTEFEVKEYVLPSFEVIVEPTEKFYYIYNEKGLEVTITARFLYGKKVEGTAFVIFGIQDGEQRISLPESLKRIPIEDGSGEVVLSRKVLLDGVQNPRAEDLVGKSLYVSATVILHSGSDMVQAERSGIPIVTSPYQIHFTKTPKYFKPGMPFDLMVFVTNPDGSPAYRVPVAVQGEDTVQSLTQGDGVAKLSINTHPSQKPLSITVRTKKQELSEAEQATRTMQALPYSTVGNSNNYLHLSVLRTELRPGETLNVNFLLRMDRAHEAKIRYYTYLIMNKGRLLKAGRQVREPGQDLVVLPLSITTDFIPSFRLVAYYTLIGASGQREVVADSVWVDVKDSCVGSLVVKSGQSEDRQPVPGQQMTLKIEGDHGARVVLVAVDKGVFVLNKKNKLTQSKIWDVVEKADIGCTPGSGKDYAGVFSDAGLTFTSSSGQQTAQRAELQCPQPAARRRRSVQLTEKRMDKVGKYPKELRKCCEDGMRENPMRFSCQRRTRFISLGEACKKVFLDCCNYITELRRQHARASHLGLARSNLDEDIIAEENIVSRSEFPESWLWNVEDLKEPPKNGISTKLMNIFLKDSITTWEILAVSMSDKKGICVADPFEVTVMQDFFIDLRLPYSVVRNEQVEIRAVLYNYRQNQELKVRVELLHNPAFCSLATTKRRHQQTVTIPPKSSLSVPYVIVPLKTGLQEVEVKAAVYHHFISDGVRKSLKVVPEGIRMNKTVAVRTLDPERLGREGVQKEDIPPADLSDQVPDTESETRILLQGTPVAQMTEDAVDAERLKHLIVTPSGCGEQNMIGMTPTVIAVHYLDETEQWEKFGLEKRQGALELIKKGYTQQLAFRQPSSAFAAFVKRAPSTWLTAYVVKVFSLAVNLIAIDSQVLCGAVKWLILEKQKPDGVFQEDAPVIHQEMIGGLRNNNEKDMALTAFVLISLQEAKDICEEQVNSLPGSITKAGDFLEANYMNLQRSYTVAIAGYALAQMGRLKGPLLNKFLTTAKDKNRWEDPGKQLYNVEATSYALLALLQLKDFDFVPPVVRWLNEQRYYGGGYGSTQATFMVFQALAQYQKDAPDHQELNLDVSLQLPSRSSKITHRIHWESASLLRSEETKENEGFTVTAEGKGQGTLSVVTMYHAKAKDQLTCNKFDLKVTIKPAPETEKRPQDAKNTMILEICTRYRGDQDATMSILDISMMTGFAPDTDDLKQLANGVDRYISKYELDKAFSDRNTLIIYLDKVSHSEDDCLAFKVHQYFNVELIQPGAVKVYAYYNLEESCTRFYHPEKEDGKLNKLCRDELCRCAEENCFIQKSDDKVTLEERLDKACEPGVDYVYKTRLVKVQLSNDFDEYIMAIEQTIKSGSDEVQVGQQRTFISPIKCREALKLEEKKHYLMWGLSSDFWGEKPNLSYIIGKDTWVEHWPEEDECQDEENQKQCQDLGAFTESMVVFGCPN

[15] = biological target: complement factor C1q (recombinant C1q) (human) (UniProt P02745); assay: ELISA; coated antibody, recombinant C1q, maximum binding at 10 µg/ml
complement factor C1q (recombinant C1q) (human), sequence (P02745 23-245 limits assumed, chain 1 of 3): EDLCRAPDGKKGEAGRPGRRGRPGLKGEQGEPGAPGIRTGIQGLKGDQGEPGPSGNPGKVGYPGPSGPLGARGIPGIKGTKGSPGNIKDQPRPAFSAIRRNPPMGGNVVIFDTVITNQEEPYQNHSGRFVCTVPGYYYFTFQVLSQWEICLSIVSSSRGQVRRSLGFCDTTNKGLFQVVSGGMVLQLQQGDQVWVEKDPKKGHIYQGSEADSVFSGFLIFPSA
complement factor C1q (recombinant C1q) (human), sequence (P02746 28-253 limits assumed, chain 2 of 3, further chain): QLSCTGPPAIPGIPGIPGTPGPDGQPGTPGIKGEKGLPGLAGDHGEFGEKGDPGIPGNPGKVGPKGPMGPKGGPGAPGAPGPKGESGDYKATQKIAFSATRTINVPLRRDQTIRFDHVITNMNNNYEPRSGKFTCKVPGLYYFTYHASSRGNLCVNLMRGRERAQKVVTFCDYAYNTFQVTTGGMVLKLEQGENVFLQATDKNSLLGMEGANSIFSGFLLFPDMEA
complement factor C1q (recombinant C1q) (human), sequence (P02747 29-245 limits assumed, chain 3 of 3, further chain): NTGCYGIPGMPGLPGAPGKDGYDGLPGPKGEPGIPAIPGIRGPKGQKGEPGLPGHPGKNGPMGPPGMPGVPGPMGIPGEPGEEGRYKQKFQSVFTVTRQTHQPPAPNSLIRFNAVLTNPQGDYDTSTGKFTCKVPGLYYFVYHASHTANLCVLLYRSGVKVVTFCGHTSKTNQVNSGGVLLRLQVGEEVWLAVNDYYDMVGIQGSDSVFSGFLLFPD

[16] = biological target: human FcγRIIa on stably transfected IIA1.6 cells (human) (UniProt P12318); assay: flow cytometry on IIA1.6 cells with human FcγRIIa, maximum binding at 10 µg/ml
human FcγRIIa on stably transfected IIA1.6 cells (human), sequence (P12318 34-317): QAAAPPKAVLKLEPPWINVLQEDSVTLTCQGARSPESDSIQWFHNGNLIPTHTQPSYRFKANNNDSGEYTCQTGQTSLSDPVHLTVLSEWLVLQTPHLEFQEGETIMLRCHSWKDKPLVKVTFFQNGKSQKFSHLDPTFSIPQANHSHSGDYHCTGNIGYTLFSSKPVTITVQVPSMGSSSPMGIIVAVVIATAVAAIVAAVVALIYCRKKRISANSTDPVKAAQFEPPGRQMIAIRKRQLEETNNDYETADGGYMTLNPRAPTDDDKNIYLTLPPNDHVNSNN

[17] = biological target: human FcγRIIb on stably transfected IIA1.6 cells (human) (UniProt P31994); assay: flow cytometry on IIA1.6 cells with human FcγRIIb, maximum binding at 10 µg/ml
human FcγRIIb on stably transfected IIA1.6 cells (human), sequence (P31994 43-310): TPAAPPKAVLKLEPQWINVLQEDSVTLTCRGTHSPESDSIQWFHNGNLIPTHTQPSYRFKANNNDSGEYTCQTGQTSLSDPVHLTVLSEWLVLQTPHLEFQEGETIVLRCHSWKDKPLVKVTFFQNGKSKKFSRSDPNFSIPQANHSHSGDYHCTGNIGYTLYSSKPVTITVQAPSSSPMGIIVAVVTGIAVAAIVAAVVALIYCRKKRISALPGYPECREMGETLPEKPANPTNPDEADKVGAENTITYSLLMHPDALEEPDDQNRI

[18] = biological target: complement factor C1q (recombinant C1q) (human) (UniProt P02745); assay: ELISA; plate coated with serially diluted antibody, recombinant C1q added, anti-C1q detection
[19] = biological target: human OX40L expressed on cells (K562-hOX40L cells; HUVEC) (human) (UniProt P23510); assay: FACS on HUVEC; <KLH> 10 µg/ml 24 h, no staining antibody, secondary anti-human IgG-Alexa488 (media control 5.39)
[20] = biological target: human OX40L expressed on cells (K562-hOX40L cells; HUVEC) (human) (UniProt P23510); assay: FACS on HUVEC; <KLH> 10 µg/ml 2.5 h, no staining antibody, secondary anti-human IgG-Alexa488 (media control 5.17)

human OX40L expressed on cells (K562-hOX40L cells; HUVEC) (human), sequence (P23510 whole entry, the tested form may be a part): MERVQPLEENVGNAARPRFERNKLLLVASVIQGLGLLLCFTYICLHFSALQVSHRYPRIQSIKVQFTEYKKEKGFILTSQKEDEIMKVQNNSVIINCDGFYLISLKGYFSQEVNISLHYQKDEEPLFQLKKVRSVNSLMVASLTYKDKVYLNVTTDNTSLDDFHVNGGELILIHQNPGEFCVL

Substance: TAG34, anti-human OX40L monoclonal antibody
- IC50, IL-2 release of PHA-activated PBL co-stimulated with K562 OX40L cells [1]: 70 nM
- EC50 (read off the curve) [2]: 2 µg/mL
- MFI [3]: 31.6 MFI
- MFI [4]: 30.8 MFI
- MFI [5]: 25.3 MFI
- Kd [6]: 0.375 nM
- koff [6]: 3.32e-05 s⁻¹
- kon [6]: 88400 M⁻¹ s⁻¹
- MFI [7]: 31.8 MFI
- IC50 [8]: 7 nM
- MFI [9]: 7.39 MFI
- MFI [10]: 9.44 MFI
- MFI [11]: 14.9 MFI
- MFI [12]: 8.97 MFI
- IC50 (read off the curve) [13]: 1 µg/mL

Substance: human IgG4 (The Binding Site), control antibody
- C3c deposition ELISA, Bmax (OD405) [14]: 0.095 OD405
- Bmax (OD405) [15]: 0.353 OD405

Substance: human IgG3 (The Binding Site), control antibody
- Bmax (MFI) [16]: 537 MFI
- Bmax (MFI) [17]: 419 MFI

Substance: HuMab antibody directed against Keyhole Limpet Hemocyanin (alpha-KLH)
- C3c deposition ELISA, Bmax (OD405) [14]: 2.63 OD405
- C3c deposition ELISA, EC50 [14]: 2.16 µg/mL
- Bmax (OD405) [15]: 3.31 OD405
- EC50 [18]: 2.57 µg/mL
- MFI [19]: 4.74 MFI
- MFI [20]: 4.76 MFI

Substance: Human IgG1 (The Binding Site), control antibody
- C3c deposition ELISA, Bmax (OD405) [14]: 2.54 OD405
- C3c deposition ELISA, EC50 [14]: 5.45 µg/mL
- Bmax (OD405) [15]: 2.69 OD405
- EC50 [18]: 4.17 µg/mL

— US7501496
